Where “and” joins values, the source holds several entries; their conditions need not be identical. Equal entries are not always repeated.
Each substance was assayed against C3b (human) (UniProt P01024) (assay: SPR; C3b amine-coupled to a Biacore C1 chip; dilution series of CFH (from 2.5 to 0.019 uM), preincubated with or without a 2-fold molar excess of PspCN, flowed over; Biacore T200, 25 °C, 10 mM HEPES, 150 mM NaCl, 0.05% P20; 1:1 steady-state model; three experiments on different chips).
Sequence of C3b (human) (P01024 23-667, chain 1 of 2): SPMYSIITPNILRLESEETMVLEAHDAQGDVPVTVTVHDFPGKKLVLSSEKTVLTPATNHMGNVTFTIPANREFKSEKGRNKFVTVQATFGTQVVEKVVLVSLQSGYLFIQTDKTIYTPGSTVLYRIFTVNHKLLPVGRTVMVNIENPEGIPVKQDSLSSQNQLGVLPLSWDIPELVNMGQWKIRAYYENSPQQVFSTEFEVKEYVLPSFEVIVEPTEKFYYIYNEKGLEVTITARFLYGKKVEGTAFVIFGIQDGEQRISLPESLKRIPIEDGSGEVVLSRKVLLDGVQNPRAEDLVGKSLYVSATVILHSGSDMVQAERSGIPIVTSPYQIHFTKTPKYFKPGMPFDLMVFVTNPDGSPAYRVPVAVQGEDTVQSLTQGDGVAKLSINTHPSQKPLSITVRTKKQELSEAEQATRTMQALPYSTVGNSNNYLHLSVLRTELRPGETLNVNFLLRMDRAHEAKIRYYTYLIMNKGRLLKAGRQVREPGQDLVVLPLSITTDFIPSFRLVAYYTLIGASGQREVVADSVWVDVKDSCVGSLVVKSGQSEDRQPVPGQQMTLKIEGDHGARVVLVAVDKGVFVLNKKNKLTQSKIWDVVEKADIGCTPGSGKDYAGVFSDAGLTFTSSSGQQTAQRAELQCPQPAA
Sequence of C3b (human) (P01024 749-1663, chain 2 of 2): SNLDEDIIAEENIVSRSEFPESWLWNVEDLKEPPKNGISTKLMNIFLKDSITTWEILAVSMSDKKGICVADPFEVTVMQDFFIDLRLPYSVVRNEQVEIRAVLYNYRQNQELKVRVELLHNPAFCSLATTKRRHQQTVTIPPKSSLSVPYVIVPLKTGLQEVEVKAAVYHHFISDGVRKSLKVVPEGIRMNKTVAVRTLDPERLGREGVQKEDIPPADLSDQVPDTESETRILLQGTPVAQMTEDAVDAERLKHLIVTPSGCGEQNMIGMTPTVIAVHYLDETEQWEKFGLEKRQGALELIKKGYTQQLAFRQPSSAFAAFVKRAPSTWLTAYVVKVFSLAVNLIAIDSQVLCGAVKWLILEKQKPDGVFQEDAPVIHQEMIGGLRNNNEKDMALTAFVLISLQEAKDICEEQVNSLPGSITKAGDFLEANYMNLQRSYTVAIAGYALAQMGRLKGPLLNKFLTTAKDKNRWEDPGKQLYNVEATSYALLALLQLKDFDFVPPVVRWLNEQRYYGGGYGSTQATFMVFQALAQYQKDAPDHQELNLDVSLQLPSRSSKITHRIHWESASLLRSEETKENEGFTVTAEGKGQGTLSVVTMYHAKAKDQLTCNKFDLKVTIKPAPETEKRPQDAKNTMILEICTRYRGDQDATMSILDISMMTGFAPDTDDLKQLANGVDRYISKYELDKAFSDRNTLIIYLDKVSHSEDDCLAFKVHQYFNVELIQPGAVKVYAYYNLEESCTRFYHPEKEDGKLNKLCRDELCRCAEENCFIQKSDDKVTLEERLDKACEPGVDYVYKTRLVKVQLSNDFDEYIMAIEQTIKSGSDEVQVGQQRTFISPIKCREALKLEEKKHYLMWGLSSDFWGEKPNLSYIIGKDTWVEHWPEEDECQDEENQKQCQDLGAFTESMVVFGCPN

| Substance | Kd |
| --- | --- |
| LA-CFH–PspCN complex (from UniProt P08603 19-1231; Q9KK19 37-140) | 700 nM and 600 nM |
| I62-CFH–PspCN complex (from UniProt P08603 19-1231; Q9KK19 37-140) | 620 nM and 500 nM |
| R53H-CFH–PspCN complex (from UniProt P08603 19-1231; Q9KK19 37-140) | 1000 nM and 580 nM |
| CFH purified from human plasma (plasma CFH) (from UniProt P08603 19-1231) (natural protein) | 330 nM |

Reference: article PMC5555194
